Molecular target: SARS-CoV-2 nsp12 (SARS-CoV-2, UniProt P0DTD1)
Assay: cryo-EM structure

B1: SARS-CoV-2 nsp9 (natural protein)
chain: NNELSPVALRQMSCAAGTTQTACTDDNALAYYNTTKGGRFVLALLSDLQDLKWARFPKSDGTGTIYTELEPPCRFVTDTPKGPKVKYLYFIKGLNNLNRGMVLGSLAATVRLQ
- binding result: binds

B2: RNAylated-nsp9 (20mer RNA) (natural protein)
chain: NNELSPVALRQMSCAAGTTQTACTDDNALAYYNTTKGGRFVLALLSDLQDLKWARFPKSDGTGTIYTELEPPCRFVTDTPKGPKVKYLYFIKGLNNLNRGMVLGSLAATVRLQ
- binding result: binds

Source: article PMC10557602 (bioRxiv, 2023)
